Laboratory results as given in the supplement of paper PMC12042874.
± gives the uncertainty stated by the source.

Assay: amyloid nucleation score (Sup35N fusion, yeast selection) (log enrichment); library NNK1; higher = more nucleation; inactive = no reads after selection
Outline: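 The nucleation score is a DiMSum log enrichment of output over input reads, centred on the mode score of non-aggregating sequences. Sequences under 100 input reads were excluded, and reads came from Illumina sequencing of plasmid inserts. Psi-negative yeast expressing Sup35N fused to peptides of 20 random codons were induced with 100 μM copper sulfate for 24 hours and grown 7 days at 30°C on medium lacking adenine and uracil. Random libraries had three technical output replicates.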

| Substance | amyloid nucleation score |
| --- | --- |
| TYRCGHLLGFVY | inactive |
| NTSEIPCCVIQEWFYCTFYL | 7.503 ± 0.044 |
| RDVTCRLYLMLWS | -0.641 ± 1.5 |
| GRHSWINGYKVEV | 6.938 ± 0.055 |
| SLRILRSRS | inactive |
| VMWRFKSVTCI | -0.393 ± 0.33 |
| FRFLKEASKCKPVTVMSPSW | 0.123 ± 0.7 |
| FPWVCIVVCERTS | 3.41 ± 0.17 |
| FNGRVDSARCPGVARARHLL | -0.846 ± 2.4 |
| LLVLMYNCFAIYKNWIF | 0.209 ± 1.2 |
| CSGSTRVKHFHRFFTNWLLM | 0.323 ± 0.63 |
| RYVHSAQLFVNATPHRLRLV | 0.578 ± 0.34 |
| YMCGLSECAS | 5 ± 0.062 |
| DHMRYSTRRWQYPTSVVLSG | 0.543 ± 0.25 |
| FQPIGSMWNYRSMYVYSTLF | -0.062 ± 0.57 |
| CVHTSVDDGRNYVKNLNDAR | inactive |
| YTIEYTSITVIVCGILYNT | 6.932 ± 0.05 |
| NGCQSIMR | 0.165 ± 0.62 |
| VYKTRVYVDCYEILDGSKEM | 0.491 ± 0.45 |
| NRIVADSESYCTSCLAVCAH | 0.177 ± 0.3 |
| AHFKYN | 0.271 ± 1.4 |
| WVSSDITGRG | 1.87 ± 0.65 |
| IMSCDERWN | 0.287 ± 0.23 |
| VRNDLNTH | 0.377 ± 0.19 |
| CFCVD | 1.01 ± 0.19 |

| Substance | amyloid nucleation score |
| --- | --- |
| LLVSFTENNRPDLILQSHLM | -1.2 ± 1.2 |
| VWVKSHLY | -0.537 ± 0.25 |
| LVILVVFGKRY | -0.139 ± 0.41 |
| TSINGYSVAKSGGSMYCIGM | -0.194 ± 0.67 |
| EEDII | 1.96 ± 0.26 |
| RCSSGSRICAMRLLGYSSYI | -0.066 ± 0.75 |
| SYTVFCRVWYDSHRFM | -0.066 ± 0.45 |
| SRIIGMSRCCIGHRYMYMKT | -0.598 ± 1.4 |
| RLYSDAQ | -0.003 ± 0.71 |
| TMLTWASRRLDYFSGALCFM | -0.119 ± 0.45 |
| FSDMDVTQPENKDWHLEE | 1.23 ± 0.9 |
| MHNIASC | 0.629 ± 0.48 |
| YNPGG | -0.248 ± 0.26 |
| VFNARVSYSFNSMCWVRKKQ | -2.08 ± 2.7 |
| VFCVRYLRANISCEGHDGWY | 2.28 ± 0.14 |
| SVFYYILNPSEAVHEVSVTS | -0.564 ± 0.48 |
| QDGPIIFWDMVYFSFYFKH | -0.925 ± 1.2 |
| TLVGKVLADDSRGFINCR | 0.924 ± 0.97 |
| YFRYWNSLIGIKDSD | 1.17 ± 0.39 |
| VCMISAQYYLDIMMGRCNVI | 0.468 ± 0.36 |
| VMSFILYLSMLCGARDSQRH | 2.89 ± 0.14 |
| FFNYD | -0.628 ± 0.8 |
| GVHSTEKNEWTQTFQSGR | -0.103 ± 0.98 |
| FPDNVISIIDFR | -0.235 ± 0.54 |
| TSFFADYVHTIKLLAPLSVG | inactive |

| Substance | amyloid nucleation score |
| --- | --- |
| AVYGAECDCAWFTPYSVVAD | 0.19 ± 0.36 |
| AKSKVLWESSVRQRS | -0.04 ± 0.62 |
| LVRFSSVLCMQHQREV | 0.844 ± 0.55 |
| ALCVWQRLSRLLLDTPWHVR | 0.806 ± 0.69 |
| NQILRLMCWTFYFRESSKSY | inactive |
| GFFVQNRTWQIH | -0.858 ± 0.45 |
| DQSILRLYAWALRPGELELR | 3.15 ± 0.14 |
| VSIGILLFILPSRTGCVCLM | 0.087 ± 0.66 |
| DYVYHKAWKVKGTRAWKESL | -0.266 ± 1.4 |
| SLPRSSIRYRFQCVRLESVM | -0.601 ± 0.47 |
| LDLSNDGRFYKGREGAISCR | 0.049 ± 0.31 |
| SVYRSVRGNRCWGLKIIMPG | -0.101 ± 1.1 |
| YVWVGADDFFYRGYVFSRLV | -0.212 ± 1.4 |
| LFVFPVESCMCMQLRVAQSK | 0.642 ± 0.62 |
| LAGGVHLRPHERKEFLD | inactive |
| ACCYVDLKIKFNVLPAVNIK | inactive |
| YRWSVCCLLVMFWLYDGALL | -0.156 ± 0.8 |
| MVGNIYSSPFYPRYSLTNGT | -0.161 ± 0.83 |
| WVLWYSLLLTDGGDLIESTW | -0.156 ± 0.23 |
| FAFIDMHKGC | 1.69 ± 0.17 |
| EGNLVLSMLMY | -0.198 ± 0.47 |
| RSFSCLSQVFTYVPLTVRET | 0.22 ± 0.6 |
| RRRFTIGASVCFRQCFYCQG | -0.491 ± 1.6 |
| SMWTKKLFMFHNGI | 0.201 ± 0.56 |
| RCYSFRSHRRNFNIYVLSKW | inactive |

| Substance | amyloid nucleation score |
| --- | --- |
| ARTRVTLSR | -0.072 ± 0.98 |
| CFMCTGAGCILNEMPRNLLG | 7.793 ± 0.071 |
| CHEQHSASREYVDREYGKYS | inactive |
| GFTGARVSTQHRLRGN | -0.245 ± 0.84 |
| DIIIWSSSRHYNVNCKSNSA | 0.55 ± 0.18 |
| GTTLTDSVCYRGLNFPRLY | -0.435 ± 1.9 |
| NFPVPLRNDLKLAFMQNLNS | -0.531 ± 0.3 |
| FLPQAAWCKLYLIKLLNPPL | 1.1 ± 0.98 |
| VPTMEMTVAYGSWTCSERCE | -0.468 ± 0.44 |
| LLGVGCNRIDWLNGAKN | 2.04 ± 0.49 |
| SFFRNLLYFMIRCGNGYRET | -0.109 ± 0.93 |
| GGWFIINRHHLCYSRNLPPE | 0.271 ± 0.69 |
| YMPPNGKCSKVCLLRGGDYM | 0.719 ± 0.37 |
| YSIFILRSAWMMRRIEMSTA | -0.252 ± 0.45 |
| SDFYLGSRVTCGLNLSMAMG | 0.686 ± 0.62 |
| PTPILFCYQRCLGVYYMDET | 0.198 ± 0.4 |
| CFVPY | -0.109 ± 0.53 |
| STFAPNTSFGTIEIRFWICV | -0.702 ± 1.1 |
| EYLCLI | 0.147 ± 0.45 |
| VAEVKRFCELLLK | -0.29 ± 1.7 |
| MSEVTMGLRTMFVIFNR | 2.79 ± 0.1 |
| NLMNWRLYDLTGLAAWDQYS | -0.841 ± 0.98 |
| PETFLPTSRVPEMGKLDTLS | 0.456 ± 0.22 |
| SLFSWVCRSITGPILRISLR | 0.73 ± 0.24 |
| MCFSVG | -0.148 ± 0.4 |

| Substance | amyloid nucleation score |
| --- | --- |
| SRYKTPSVDGVFCSALRGSG | 0.301 ± 0.61 |
| IFTRLSLSFHNLGLGWKTRV | -0.248 ± 0.38 |
| EYLSA | 0.403 ± 0.55 |
| QLLSLCLDQTVKRRYFNFRA | -0.073 ± 0.26 |
| FVTDCLHYRRTWQLGC | 0.419 ± 0.28 |
| YFVQYLYTLMLACYYWVISY | -1.61 ± 1.4 |
| RLVPVACNPSLNKAVENSFF | 0.056 ± 1.5 |
| SLVYYLGEWV | -0.366 ± 0.34 |
| YSRWER | -0.565 ± 0.39 |
| SPSES | -0.31 ± 0.61 |
| SGTAKGVLAW | 1.4 ± 0.63 |
| RFRRSLLMYYGTTSVGLLRP | 0.664 ± 1.2 |
| LNFWGACLIHYSWQNTIVLV | 2.28 ± 0.16 |
| KLVLRGVFIIDFWSNARRAS | 0 ± 0.29 |
| KSRSRLPCTRSHTIEFVRMR | 0.831 ± 0.56 |
| PAMAWSSSMSFRGTILLDFA | -1.44 ± 2.7 |
| RIMPEKGRNSHWMYIRVQER | 1.12 ± 0.58 |
| TFACGKYVVPFCIYVDR | -0.059 ± 0.34 |
| VRKISIFFMNSWVWLSSRFH | 0.069 ± 0.49 |
| LYLHSWAYVHKNTLNYL | -0.14 ± 0.5 |
| GNFMRLRWNVKFL | -0.016 ± 0.72 |
| IFDSFQATLCLGCLMLLSYF | 0.423 ± 0.44 |
| ILNYVRPCS | 0.416 ± 0.56 |
| DCDYGCLKLSEEFGSVSSFR | 0.165 ± 1.4 |
| HLLNMNSDLRTHCYVVWT | -0.264 ± 0.25 |

| Substance | amyloid nucleation score |
| --- | --- |
| FFQRVCK | 1.65 ± 0.31 |
| CIGTHRIRFNSLLYRDQPII | -0.15 ± 0.86 |
| PYFINST | 1.75 ± 0.53 |
| KLARTMGYTGTSMVACFCVV | inactive |
| FLEWAPSLNKLHRF | 0.768 ± 0.17 |
| PYVEIAWS | -1.19 ± 0.85 |
| TISILCQYQVMGTIFIYVVQ | 1.66 ± 0.13 |
| SSVFKRMWPLLFVIPRQMH | 0.02 ± 0.43 |
| KWIRRRTDIFELSRLVWMGW | -0.694 ± 0.58 |
| GYACYFSSSDYCWVAPHCGL | 1.01 ± 0.14 |
| GLKNFWM | -1.55 ± 1.9 |
| QIWPKAWPLFWPRNRKYANR | -0.077 ± 0.26 |
| HTQYSSRYGFMCSRWIVSGV | 0.684 ± 0.7 |
| INMYWY | -0.031 ± 0.31 |
| IMNMSSNIRK | -0.539 ± 0.34 |
| NYAYCSLVVEDSVK | 8.284 ± 0.063 |
| IEEPIYDSKHLPKMRSTGYT | 0.486 ± 0.35 |
| VLDEYFCNLC | 5.989 ± 0.058 |
| GFCNYMSFCFHIDASE | 7.587 ± 0.056 |
| NNPLLIPAYPTRNQKVKLIK | 0.108 ± 0.39 |
| NASSLVRTDCHSMRKESSMR | 0.052 ± 0.4 |
| ISGRVGAWSPIVYWPLRRGG | -0.573 ± 0.61 |
| NVDRSCWRRECPDCWVMLNM | 0.664 ± 0.49 |
| KVSYRMRASPRSKILVIRKS | 0.43 ± 0.72 |
| ICMKLLFEYLVPVLRQAH | -0.307 ± 1.2 |

| Substance | amyloid nucleation score |
| --- | --- |
| PFTHHHKCLVHRLLCRLQHE | 0.616 ± 0.79 |
| SYNDQSVAYCVLIAETVWYC | 7.742 ± 0.055 |
| GYEEFGVGRTSVPMETARLK | -0.406 ± 0.44 |
| LREFPFYFTISLRITLFMSL | -0.391 ± 0.23 |
| QPALPSGPVDQS | 0.42 ± 0.35 |
| WMEVHWGGNVSLDSSYMELF | -0.044 ± 1.1 |
| TFTSLNNVVYIDISDTSDKN | 3.81 ± 0.073 |
| ESHVWELDLGSWSRFGWRSR | 2.62 ± 0.11 |
| TFEALLTVDSYYSFSLVP | 1.21 ± 0.4 |
| VVDEKREVRSLANVNTASSL | 0.1 ± 0.28 |
| HILGPLIRSMMIFSCLVSVV | 1.29 ± 0.36 |
| KSFACYNKDQ | 0.423 ± 0.99 |
| AMIPNVRVYVVVITNISFCV | 0.736 ± 0.26 |
| RLVGGPRRASITKNWYTEK | -0.649 ± 0.73 |
| RCLRTALCISMSGWCSYSNW | 1.27 ± 0.15 |
| VPWLKGAVDPVTRFGV | -0.016 ± 0.78 |
| SNYSQLLVMEVLHLGYTIRR | -1.19 ± 0.91 |
| FTMSTISCSGSDTIVID | -0.503 ± 0.25 |
| SWRLRIIGEWRAFGDNMDSR | 2.75 ± 0.15 |
| NHTGYTWMNVR | -0.099 ± 0.26 |
| TMCEYSHFLLRAMNNLMENV | -1.57 ± 2.7 |
| SWQPECCTVQTLSSKSEISH | -0.158 ± 1.6 |
